In US7026283:

Legend:
[1] = target: rat FcεRI (high affinity IgE receptor) on RBL-2H3 cells (rat) (UniProt P12371); test: FACS on RBL-2H3 cells; FITC-conjugated IgE after preincubation with saturating unconjugated BC4 (competitor); conditions: scale: mCi
[2] = target: rat FcεRI (high affinity IgE receptor) on RBL-2H3 cells (rat) (UniProt P12371); test: FACS on RBL-2H3 cells; FITC-conjugated IgE after preincubation with saturating unconjugated 5.14 (competitor); conditions: scale: mCi
[3] = target: rat FcεRI (high affinity IgE receptor) on RBL-2H3 cells (rat) (UniProt P12371); test: FACS on RBL-2H3 cells; FITC-conjugated IgE after preincubation with saturating unconjugated 1A12 (competitor); conditions: scale: mCi
[4] = target: rat FcεRI (high affinity IgE receptor) on RBL-2H3 cells (rat) (UniProt P12371); test: FACS on RBL-2H3 cells; FITC-conjugated IgE at a subsaturating concentration, no preincubation; conditions: scale: mCi
[5] = target: rat FcεRI (high affinity IgE receptor) on RBL-2H3 cells (rat) (UniProt P12371); test: FACS on RBL-2H3 cells; FITC-conjugated IgE after preincubation with saturating unconjugated AA4 (anti-ganglioside Gd1b, competitor); conditions: scale: mCi
[6] = target: rat FcεRI (high affinity IgE receptor) on RBL-2H3 cells (rat) (UniProt P12371); test: FACS on RBL-2H3 cells; FITC-conjugated IgE after preincubation with saturating unconjugated 3A9 (competitor); conditions: scale: mCi
[7] = target: rat FcεRI (high affinity IgE receptor) on RBL-2H3 cells (rat) (UniProt P12371); test: FACS on RBL-2H3 cells; FITC-conjugated IgE after preincubation with saturating unconjugated 4H7 (competitor); design: unit not given here

Median Fluorescence Intensity [1]: 5.8 | Median Fluorescence Intensity [2]: 5.5 | Median Fluorescence Intensity [3]: 61 | Median Fluorescence Intensity [4]: 75 | Median Fluorescence Intensity [5]: 12.3 | Median Fluorescence Intensity [6]: 6.5 | Median Fluorescence Intensity [7]: 6.4
Substance: IgE (antibody)
